Among the targets are PDLIM1, O00151; PDZRN4_1, Q6ZMN7; Inadl_10, Q8NI35; GIPC2, Q8TF65; LNX1_3, Q8TBB1; DLG4_3, P78352; NHERF4_2, Q86UT5; DLG4_2, P78352; GORASP1, Q9BQQ3; MAST2, Q6P0Q8; MAGI1_1, Q96QZ7; NHERF4_4, Q86UT5; GORASP2, Q9H8Y8; SCRIB_1, Q14160; TJP2_1, Q9UDY2; LNX1_1, Q8TBB1; HTRA1, Q92743.
What all share (assay): holdup assay
Holding throughout (parameters): key: below the threshold = too weak to quantify, mostly under pKd 3.1 to 4
Holding throughout (details): plain residues with an end cap or a label only (N-terminal biotin on a linker: ado-ado)

In the next experiment the target is T1, DVL3, Q92997.
T1 sequence (Q92997 244-331, limits assumed, looked up): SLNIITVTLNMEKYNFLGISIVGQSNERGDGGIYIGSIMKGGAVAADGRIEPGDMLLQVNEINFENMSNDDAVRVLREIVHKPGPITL

The next experiment concerns the target T2, GRIP1_3, Q9Y3R0.
T2 sequence (Q9Y3R0 247-346, limits assumed, looked up): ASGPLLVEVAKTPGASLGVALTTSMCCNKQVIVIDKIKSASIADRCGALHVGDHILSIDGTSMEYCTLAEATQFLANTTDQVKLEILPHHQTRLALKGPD

Another experiment addresses T3, GRIP1_5, Q9Y3R0.
T3 sequence (Q9Y3R0 568-668, limits assumed, looked up): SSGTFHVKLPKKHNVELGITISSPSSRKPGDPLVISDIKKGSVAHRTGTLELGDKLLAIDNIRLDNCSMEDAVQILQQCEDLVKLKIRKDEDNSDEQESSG

For a further experiment, the target named is T4, DFNB31_3, Q9P202.
T4 sequence (Q9P202 811-907, limits assumed, looked up): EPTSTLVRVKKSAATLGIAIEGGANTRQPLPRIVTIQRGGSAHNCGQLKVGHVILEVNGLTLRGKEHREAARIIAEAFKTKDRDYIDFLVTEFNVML

For a further experiment, the target named is T5, GRIP1_2, Q9Y3R0.
T5 sequence (Q9Y3R0 145-248, limits assumed, looked up): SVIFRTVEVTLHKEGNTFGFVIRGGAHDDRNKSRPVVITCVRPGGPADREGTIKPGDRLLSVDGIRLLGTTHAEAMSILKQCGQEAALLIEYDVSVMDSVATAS

Another experiment concerns the target T6, RADIL, Q96JH8.
T6 sequence (Q96JH8 971-1071, limits assumed, looked up): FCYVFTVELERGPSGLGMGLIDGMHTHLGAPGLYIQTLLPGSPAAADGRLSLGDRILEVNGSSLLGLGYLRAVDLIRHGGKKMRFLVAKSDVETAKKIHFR

A further experiment deals with T7, RAPGEF6, Q8TEU7.
T7 sequence (Q8TEU7 525-625, limits assumed, looked up): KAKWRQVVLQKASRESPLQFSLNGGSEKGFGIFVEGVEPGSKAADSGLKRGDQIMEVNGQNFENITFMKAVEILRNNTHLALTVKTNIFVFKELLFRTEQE

The next experiment has as its target T8, LIN7A, O14910.
T8 sequence (O14910 103-200, limits assumed, looked up): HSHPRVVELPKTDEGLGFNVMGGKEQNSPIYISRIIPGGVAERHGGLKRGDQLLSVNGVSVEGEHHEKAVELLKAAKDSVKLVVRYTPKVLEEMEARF

The next experiment concerns the target T9, RHPN1, Q8TCX5.
T9 sequence (Q8TCX5 508-602, limits assumed, looked up): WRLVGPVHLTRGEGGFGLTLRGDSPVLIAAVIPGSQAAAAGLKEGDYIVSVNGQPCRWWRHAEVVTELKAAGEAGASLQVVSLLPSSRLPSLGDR

In another experiment the target is T10, PDZRN3_1, Q9UPQ7.
T10 sequence (Q9UPQ7 244-349, limits assumed, looked up): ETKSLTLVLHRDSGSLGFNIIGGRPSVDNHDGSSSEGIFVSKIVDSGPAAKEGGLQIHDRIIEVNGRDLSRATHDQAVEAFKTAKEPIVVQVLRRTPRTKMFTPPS

Sequence of LNX1_3, Q8TBB1 (Q8TBB1 500-596): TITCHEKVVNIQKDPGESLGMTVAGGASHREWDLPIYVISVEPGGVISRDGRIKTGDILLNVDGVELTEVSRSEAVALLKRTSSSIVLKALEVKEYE
Sequence of DLG4_3, P78352 (P78352 306-403): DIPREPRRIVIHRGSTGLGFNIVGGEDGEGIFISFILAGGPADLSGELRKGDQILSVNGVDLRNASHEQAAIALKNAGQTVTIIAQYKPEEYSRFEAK
Sequence of GIPC2, Q8TF65 (Q8TF65 112-203): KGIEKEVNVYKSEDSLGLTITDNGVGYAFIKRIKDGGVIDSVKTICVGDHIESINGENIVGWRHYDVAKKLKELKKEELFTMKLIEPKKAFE
Sequence of NHERF4_2, Q86UT5 (Q86UT5 220-308): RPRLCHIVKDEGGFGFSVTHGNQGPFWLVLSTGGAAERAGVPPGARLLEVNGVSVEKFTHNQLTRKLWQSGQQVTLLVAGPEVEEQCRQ
Sequence of MAGI1_1, Q96QZ7 (Q96QZ7 1-106): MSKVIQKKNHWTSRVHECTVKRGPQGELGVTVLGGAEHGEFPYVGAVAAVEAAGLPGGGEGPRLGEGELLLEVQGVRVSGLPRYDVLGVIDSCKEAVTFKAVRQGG
Sequence of GORASP1, Q9BQQ3 (Q9BQQ3 1-208): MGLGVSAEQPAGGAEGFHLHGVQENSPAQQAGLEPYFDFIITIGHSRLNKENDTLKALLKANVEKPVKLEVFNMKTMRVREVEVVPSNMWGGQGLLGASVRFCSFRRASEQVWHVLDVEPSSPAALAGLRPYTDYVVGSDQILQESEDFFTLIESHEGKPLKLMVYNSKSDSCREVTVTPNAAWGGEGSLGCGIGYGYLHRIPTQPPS
Sequence of Inadl_10, Q8NI35 (Q8NI35 1673-1763): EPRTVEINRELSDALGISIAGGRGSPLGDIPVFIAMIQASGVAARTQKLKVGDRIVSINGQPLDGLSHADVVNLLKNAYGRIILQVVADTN
Sequence of NHERF4_4, Q86UT5 (Q86UT5 464-550): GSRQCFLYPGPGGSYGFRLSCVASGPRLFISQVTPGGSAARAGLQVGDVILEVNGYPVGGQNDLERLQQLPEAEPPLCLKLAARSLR
Sequence of LNX1_1, Q8TBB1 (Q8TBB1 261-371): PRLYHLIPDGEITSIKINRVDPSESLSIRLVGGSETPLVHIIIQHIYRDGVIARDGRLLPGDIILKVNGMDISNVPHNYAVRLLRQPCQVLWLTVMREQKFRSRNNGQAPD
Sequence of MAST2, Q6P0Q8 (Q6P0Q8 1099-1202): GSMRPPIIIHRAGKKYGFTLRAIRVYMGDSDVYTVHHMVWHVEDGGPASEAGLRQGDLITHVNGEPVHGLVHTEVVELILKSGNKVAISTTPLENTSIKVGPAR
Sequence of TJP2_1, Q9UDY2 (Q9UDY2 24-128): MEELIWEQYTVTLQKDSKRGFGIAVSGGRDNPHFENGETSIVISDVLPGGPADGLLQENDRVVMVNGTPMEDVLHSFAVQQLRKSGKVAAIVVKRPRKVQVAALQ
Sequence of SCRIB_1, Q14160 (Q14160 718-814): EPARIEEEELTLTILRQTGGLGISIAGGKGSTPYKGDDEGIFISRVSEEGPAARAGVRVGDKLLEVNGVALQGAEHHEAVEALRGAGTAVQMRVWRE
Sequence of PDZRN4_1, Q6ZMN7 (Q6ZMN7 213-318): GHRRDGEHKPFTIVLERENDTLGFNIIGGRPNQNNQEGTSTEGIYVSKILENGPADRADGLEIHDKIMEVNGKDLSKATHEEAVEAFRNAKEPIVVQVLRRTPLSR
Sequence of PDLIM1, O00151 (O00151 1-87): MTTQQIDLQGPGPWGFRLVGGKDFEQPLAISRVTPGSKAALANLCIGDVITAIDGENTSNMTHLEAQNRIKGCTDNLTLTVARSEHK
Sequence of DLG4_2, P78352 (P78352 155-259): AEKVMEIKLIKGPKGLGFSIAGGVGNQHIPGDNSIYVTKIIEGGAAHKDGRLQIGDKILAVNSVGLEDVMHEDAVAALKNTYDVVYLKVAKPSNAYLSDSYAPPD
Sequence of HTRA1, Q92743 (Q92743 360-477): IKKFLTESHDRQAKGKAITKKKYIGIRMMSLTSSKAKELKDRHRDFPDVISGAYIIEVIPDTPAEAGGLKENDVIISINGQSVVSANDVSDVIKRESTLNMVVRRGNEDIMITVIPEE

The pKd is −log10 of the Kd, conventionally taken in molar units. For LPAHHNATRL [SLC34A1, Q06495;Q06495-1], the pKd result was “below the threshold” with PDLIM1, O00151; 4.2 in the experiment with PDZRN4_1, Q6ZMN7; “below the threshold” with Inadl_10, Q8NI35; “below the threshold” with DVL3, Q92997; “below the threshold” with GIPC2, Q8TF65; “below the threshold” with GRIP1_3, Q9Y3R0. Further, the pKd result is “below the threshold” in the experiment with GRIP1_5, Q9Y3R0; “below the threshold” with DFNB31_3, Q9P202; “below the threshold” with LNX1_3, Q8TBB1; “below the threshold” with GRIP1_2, Q9Y3R0; “below the threshold” with DLG4_3, P78352; “below the threshold” with NHERF4_2, Q86UT5. Also, the pKd entry with DLG4_2, P78352 is “below the threshold”; in the experiment with GORASP1, Q9BQQ3, “below the threshold”; in the experiment with RADIL, Q96JH8, “below the threshold”; with MAST2, Q6P0Q8, 5.47; with RAPGEF6, Q8TEU7, “below the threshold”; with MAGI1_1, Q96QZ7, “below the threshold”. In addition, the pKd result with LIN7A, O14910 is on record as “below the threshold”; with NHERF4_4, Q86UT5 it was “below the threshold”; with GORASP2, Q9H8Y8, “below the threshold”.
Regarding YLEPVLSSEL [ATP2A2, P16615;P16615-3], the pKd entry with PDZRN4_1, Q6ZMN7 is “below the threshold”; in the experiment with Inadl_10, Q8NI35, “below the threshold”; with SCRIB_1, Q14160, 4.38; with DVL3, Q92997, “below the threshold”; with GIPC2, Q8TF65, “below the threshold”; in the experiment with GRIP1_3, Q9Y3R0 it was “below the threshold”. For the same molecule, the pKd entry with TJP2_1, Q9UDY2 was “below the threshold”; with GRIP1_5, Q9Y3R0, “below the threshold”; in the experiment with LNX1_1, Q8TBB1 it was 4.24; with DFNB31_3, Q9P202, 4.03; with LNX1_3, Q8TBB1, “below the threshold”; with GRIP1_2, Q9Y3R0, “below the threshold”. Further, the pKd entry with DLG4_3, P78352 was “below the threshold”; with NHERF4_2, Q86UT5, “below the threshold”; with DLG4_2, P78352, “below the threshold”; in the experiment with GORASP1, Q9BQQ3, “below the threshold”; in the experiment with RHPN1, Q8TCX5, 4.24; in the experiment with RADIL, Q96JH8, “below the threshold”. The pKd was 5.81 in the experiment with MAST2, Q6P0Q8; “below the threshold” in the experiment with RAPGEF6, Q8TEU7; “below the threshold” with MAGI1_1, Q96QZ7; “below the threshold” with LIN7A, O14910; “below the threshold” with NHERF4_4, Q86UT5; “below the threshold” in the experiment with GORASP2, Q9H8Y8.
On to KSGKQTMLVV [TRIM29, Q14134;Q14134-2], for which the pKd result is “below the threshold” with PDLIM1, O00151; “below the threshold” with Inadl_10, Q8NI35; “below the threshold” with SCRIB_1, Q14160; “below the threshold” in the experiment with DVL3, Q92997; “below the threshold” with GIPC2, Q8TF65; “below the threshold” with GRIP1_3, Q9Y3R0. Moreover, the pKd entry with TJP2_1, Q9UDY2 was “below the threshold”; in the experiment with PDZRN3_1, Q9UPQ7, “below the threshold”; with GRIP1_5, Q9Y3R0, “below the threshold”; in the experiment with LNX1_1, Q8TBB1, “below the threshold”; with HTRA1, Q92743, 4.42; with DFNB31_3, Q9P202 it was “below the threshold”. The pKd result is “below the threshold” with LNX1_3, Q8TBB1; “below the threshold” with GRIP1_2, Q9Y3R0; “below the threshold” with DLG4_3, P78352; “below the threshold” with NHERF4_2, Q86UT5; 4.34 in the experiment with GORASP1, Q9BQQ3; “below the threshold” in the experiment with RHPN1, Q8TCX5. In addition, the pKd was 4.46 with RADIL, Q96JH8; “below the threshold” with RAPGEF6, Q8TEU7; “below the threshold” with MAGI1_1, Q96QZ7; “below the threshold” with LIN7A, O14910; 4.6 in the experiment with GORASP2, Q9H8Y8.

(Values after PMC9482650, “Quantitative fragmentomics allow affinity mapping of interactomes” (Nature Communications, 2022).)
